Substitutions are numbered along the chain they refer to. Names may count otherwise.
T1: mouse MSR1 extracellular domain expressed with a N-terminal nonahistidine tag (His9-mMSR1); R&D Systems, Cat … (mouse, UniProt P30204 79-458)
T1 construct: extracellular domain; not shown: N-terminal nonahistidine tag
T1 sequence (looked up): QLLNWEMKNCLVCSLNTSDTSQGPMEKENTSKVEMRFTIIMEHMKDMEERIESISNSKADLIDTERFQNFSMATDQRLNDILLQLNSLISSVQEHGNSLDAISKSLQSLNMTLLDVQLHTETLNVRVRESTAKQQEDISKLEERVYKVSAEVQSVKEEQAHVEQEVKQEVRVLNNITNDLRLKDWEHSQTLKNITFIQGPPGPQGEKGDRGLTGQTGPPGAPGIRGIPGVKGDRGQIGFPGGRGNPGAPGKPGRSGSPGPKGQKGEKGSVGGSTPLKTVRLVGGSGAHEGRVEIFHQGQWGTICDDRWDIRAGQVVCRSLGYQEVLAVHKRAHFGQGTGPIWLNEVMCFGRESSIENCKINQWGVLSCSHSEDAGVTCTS

T2: human MSR1 extracellular domain expressed with a N-terminal nonahistidine tag (His9-hMSR1); R&D Systems, Cat … (human, UniProt P21757 77-451)
T2 construct: extracellular domain; also called His-hMSR1; 9xHis-hMSR1; not shown: N-terminal nonahistidine tag
T2 sequence (looked up): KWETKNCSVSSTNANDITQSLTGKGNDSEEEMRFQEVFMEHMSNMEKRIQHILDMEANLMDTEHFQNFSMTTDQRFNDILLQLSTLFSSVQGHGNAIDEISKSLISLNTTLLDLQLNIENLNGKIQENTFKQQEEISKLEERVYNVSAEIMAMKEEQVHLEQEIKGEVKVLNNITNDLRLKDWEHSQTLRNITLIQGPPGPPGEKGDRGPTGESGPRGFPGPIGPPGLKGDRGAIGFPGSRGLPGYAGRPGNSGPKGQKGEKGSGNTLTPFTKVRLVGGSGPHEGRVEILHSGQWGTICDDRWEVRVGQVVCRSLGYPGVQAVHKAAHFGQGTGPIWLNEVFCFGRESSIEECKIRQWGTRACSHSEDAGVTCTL

T3: monkey MSR1 extracellular domain expressed with a N-terminal hexahistidine-myc-myc tag (HMM-mfMSR1) (monkey (Macaca fascicularis))
T3 chain: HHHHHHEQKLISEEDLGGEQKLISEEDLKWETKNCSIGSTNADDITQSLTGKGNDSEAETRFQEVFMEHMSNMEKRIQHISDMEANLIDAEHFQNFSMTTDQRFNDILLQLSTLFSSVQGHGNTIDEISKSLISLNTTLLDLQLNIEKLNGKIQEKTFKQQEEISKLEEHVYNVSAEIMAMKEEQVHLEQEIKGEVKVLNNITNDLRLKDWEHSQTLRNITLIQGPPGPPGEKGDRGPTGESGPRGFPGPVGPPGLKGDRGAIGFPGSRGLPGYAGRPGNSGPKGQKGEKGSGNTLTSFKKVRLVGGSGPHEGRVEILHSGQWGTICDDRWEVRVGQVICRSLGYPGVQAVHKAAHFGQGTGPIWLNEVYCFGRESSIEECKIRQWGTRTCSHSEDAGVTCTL

B1: H1H27756P-N297Q (antibody, V domains shown)
VH: QVQLVESGGGVVQPGRSLRLSCAASGFTFSNYDMHWVRQAPGKGLEWMAVISYDGINKYYADSVKGRFTISRDNSKNTLYLQMNSLRAEDTAVYYCAKGTYSWYFDLWGRGTLVTVSS
VL: not shown
notes: Human IgG1 Fc with N297Q point mutation
B2: H1H27734P-N297Q (antibody, V domains shown)
VH: EVQLVESRGGLVQPGGSLRLSCAASGFTFSSYAMSWVRQAPGKGLEWVSAISGSGGSTFYADSVKGRFTISRDNSKNTVYLQMNSLRAEDTAVYYCAKALVLRFLEWLGDYWGQGTLVTVSS
VL: DIQMTQSPSTLSASVGDRVTITCRASQSISSWLAWFQQKPGKAPKLLIYKASSLESGVPSRFSGSGSGTEFTLTISSLQPDDFATYYCQQYKSYWTFGQGTKVEIKR
notes: as for B1
B3: H1H27760P-N297Q (antibody, V domains shown)
VH: EVQLVESGGGLVQPGRSLRLSCAASGFTFDAYAMHWVRQAPGKGLEWVSGISWNSGSIGYADSVKGRFTISRDNAKNSLYLQMNSLREEDTALYYCAKDKILELYYYGMDVWGQGTTVTVSS
VL: not shown
notes: Human IgG1 Fc with N297Q; tied by the numerical identifier; also called H1H27760P2-N297Q; H1H27760P2
B4: H1H27751P-N297Q (antibody, V domains shown)
VH: EVQLVESGGGLVQPGGSLRLSCAASGFTFSNYAMHWVRQAPGKGLEYVSAISSNGGSTYYADSVKGRITISRDNSKNTLYLQMGSLRAEDMAVYYCARGRPYYYYFGMDVWGQGTTVTVSS
VL: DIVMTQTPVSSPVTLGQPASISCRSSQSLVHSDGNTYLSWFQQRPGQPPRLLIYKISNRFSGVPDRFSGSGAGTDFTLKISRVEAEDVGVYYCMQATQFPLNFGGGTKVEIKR
notes: as for B1
B5: H2aM25690N (antibody, V domains shown)
VH: EVQLLESGGGLVQPGGSLRLSCAASGFTFSNYAMTWVRQAPGTGLEWVSAISGRGSNTYYTDSVKGRFTISRDNSKNMLYLQMNSLRAEDTASYYCAKDRFTTVGNWFDPWGQGTLVTVSS
VL: DIQMTQSPSSLSASVGDRVTITCRASQSISSYLNWYQQKPGKAPKLLIYAASSLQNGVPSRFSGSGSGTDFTLTISSLQPEDFATYYCQQSYSSLPITFGQGTRLDIKR
notes: Human variable domains with mouse IgG2a Fc; tied by the numerical identifier
B6: H1H27739P-N297Q (antibody, V domains shown)
VH: EVQLVESGGGLVQPGGSLRLSCTASGFTFSSYAMSWVRQAPGKGLEWVSAISGTGSSTYFTDSVKGRFAISRDNSKNTLYLQMNSLRAEDTAVYYCAKDGEWLSTVTLFDYWGQGTLVTVSS
VL: EIVMTQSPATLSVSPGERATLSCRASQSVSSNLAWYQQKPGQAPRLLIYGASTRATGIPARFSGSGSGTDFTLTISSLQSEDFALYYCQQYFIWPPHPTFGPGTKVDIKR
notes: as for B1
B7: H1H27731P-N297Q (antibody, V domains shown)
VH: QLQLQESGPGLVKPSETLSLTCTVSGGSISRISYYWGWIRQPPGKGLEWIGSIYDSGSTYYNPSLKSRVTISIDTSKNQFSLKLSSVTAADTAVYYCVRYSSSSAFAFDYWGQGTLVTVSS
VL: DIQMTQSPSSVSASVGDRVTITCRASQGISSWLAWYQQKPGKAPKLLIYAASSLQSGVPSRFSGSGSGTDFTLTISSLQPEDFATYYCQQANSFPFTFGPGTKVDIKR
notes: as for B1
B8: H1H27747P-N297Q (antibody, V domains shown)
VH: QVQLVESGGAVVQPGRSLRLSCAASGFTFSYYGMHWVRQAPGKGLEWVAVISYDGSKKYYADSVKGRFTISRDNSKNTLYLQMNSLRAEDTAVYYCAKDLTVDFYYGMDVWGQGTTVTVSS
VL: B7 VL with A51T, V58A, Y87F, F96Y, P100Q, V104L, D105E
notes: as for B1
B9: H2aM21232N (antibody, V domains shown)
VH: QVQLQESGPGLVKPSETLSLTCTVSGGSISSYYWSWIRQPPGKGLEWIGYIYYSGSANYNPSLKSRVTISVDTSKNQFSLKLSSVTAADTAVYYCVRDRDLLLDHWGQGTLVTVSS
VL: not shown
notes: Human variable domains with mouse IgG2a Fc
B10: H2aM25685N (antibody, V domains shown)
VH: QVQLVQSGAEVREPGASVKLSCKVSGYTLTELSIHWVRQAPGKGLEWMGGFDPEEGETVYAQKFRGRVTLTEDISPDTAYMELSSLTSEDTAVYYCATPRYCNNGICYDYWGQGTLITVSS
VL: not shown
notes: as for B5
B11: H1H27729P-N297Q (antibody, V domains shown)
VH: QVQLVESGGGLVKPGGSLRLSCAASGFIFSDYYMSWIRQAPGKGLEWVSYISSSGTTIYGDSVKGRFTMSRDNAKNSLYLQMNSLRAEDTAVYYCARNYALFDYWGQGTLVTVSS
VL: DIQMTQSPSSLSASVGDRVTITCQASQDISKYLNWYQQKPGKAPKLLIYYTSNLETGVPSRFSGSGSGTDFTFTISSLQPEDIATYYCHQSDYLPFTFGPGTKVDIKR
notes: as for B1

target: T1, mouse MSR1 extracellular domain …; experiment: BLI Octet, 25 C, antibody captured

B1: no binding (tested: 50 nM).
B2: no binding (tested: 50 nM).
B3: no binding (tested: 50 nM).
B4: no binding (tested: 50 nM).
B5: no binding (tested: 100 nM).
B6: no binding (tested: 50 nM).
B7: no binding (tested: 50 nM).
B8: no binding (tested: 50 nM).
B9: no binding (tested: 100 nM).
B10: no binding (tested: 100 nM).
B11: no binding (tested: 50 nM).

target: T2, human MSR1 extracellular domain …; experiment: SPR Biacore, 37 C, antibody captured
Protocol: (§1) Binding affinities and kinetic constants of human anti-MSR1 antibodies for different MSR1 reagents were determined by real-time surface plasmon resonance (Biacore 4000). All binding studies were performed in 10 mM HEPES, 150 mM NaCl, 3 mM EDTA, and 0.05% v/v Surfactant Tween-20, pH 7.4 (HBS-ET) running buffer at 25° C. and 37° C.
(§2) The association rate (kₐ) and dissociation rate (kd) were determined by fitting the real-time binding sensorgrams to a 1:1 binding model with mass transport limitation using Scrubber 2.0c curve-fitting software. Binding dissociation equilibrium constant (KD) and dissociative half-life (t½) were calculated from the kinetic rates as:

Point of comparison: B1, Kd 1.16 nM. Against it:
- B2 — 1.5-fold higher, 1.74 nM
- B3 — 1.5-fold higher, 1.74 nM
- B6 — 3.2-fold higher, 3.72 nM
- B7 — 2.5-fold lower, 0.462 nM
- B8 — 4.6-fold higher, 5.37 nM
- B11 — 7.4-fold higher, 8.53 nM

Point of comparison: B8, t½ 4 min. Against it:
- B1 — 3.8-fold higher, 15 min
- B2 — 1.5-fold higher, 6 min
- B3 — 1.5-fold higher, 6 min
- B6 — the same, 4 min
- B7 — 22-fold higher, 88 min
- B11 — 1.5-fold higher, 6 min

Point of comparison: B8, koff 0.00276 s⁻¹. Against it:
- B2 — within 1.5-fold, 0.0019 s⁻¹
- B6 — within 1.5-fold, 0.00288 s⁻¹
- B7 — 21-fold lower, 0.000132 s⁻¹
- B11 — within 1.5-fold, 0.00204 s⁻¹

Point of comparison: B11, kon 239000 M⁻¹ s⁻¹. Against it:
- B2 — 4.6-fold higher, 1.09e+06 M⁻¹ s⁻¹
- B6 — 3.2-fold higher, 776000 M⁻¹ s⁻¹
- B7 — within 1.5-fold, 286000 M⁻¹ s⁻¹
- B8 — 2.1-fold higher, 513000 M⁻¹ s⁻¹

Target: T3, monkey MSR1 extracellular domain …
Experiment: SPR Biacore, 37 C, antibody captured
Protocol: as §1, §2

Point of comparison: B6, Kd 0.374 nM. Against it:
- B1 — 11-fold higher, 3.97 nM
- B2 — 9-fold higher, 3.37 nM
- B4 — 4.1-fold higher, 1.55 nM
- B7 — 1.8-fold higher, 0.674 nM
- B8 — 9.3-fold higher, 3.47 nM
- B11 — 23-fold higher, 8.58 nM

Point of comparison: B6, t½ 14 min. Against it:
- B1 — 3.5-fold lower, 4 min
- B2 — 3.5-fold lower, 4 min
- B3 — 2-fold lower, 7 min
- B4 — 2.3-fold lower, 6 min
- B7 — 4.4-fold higher, 62 min
- B8 — 2.8-fold lower, 5 min
- B11 — 4.2-fold lower, 3.3 min

Point of comparison: B4, koff 0.0018 s⁻¹. Against it:
- B2 — 1.8-fold higher, 0.0032 s⁻¹
- B6 — 2.1-fold lower, 0.000842 s⁻¹
- B7 — 9.6-fold lower, 0.000187 s⁻¹
- B8 — within 1.5-fold, 0.00228 s⁻¹
- B11 — 1.9-fold higher, 0.00349 s⁻¹

Point of comparison: B2, kon 949000 M⁻¹ s⁻¹. Against it:
- B4 — within 1.5-fold, 1.17e+06 M⁻¹ s⁻¹
- B6 — 2.4-fold higher, 2.25e+06 M⁻¹ s⁻¹
- B7 — 3.4-fold lower, 278000 M⁻¹ s⁻¹
- B8 — within 1.5-fold, 657000 M⁻¹ s⁻¹
- B11 — 2.3-fold lower, 407000 M⁻¹ s⁻¹

target: T2, human MSR1 extracellular domain …; experiment: SPR Biacore, 25 C, antibody captured;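 further: rates from 1:1 fit with mass transport limitation of real-time sensorgrams, HEPES-buffered saline with EDTA and Tween-20 at pH 7.4, KD and t½ derived from the kinetic rates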
Protocol: as §1, §2

Point of comparison: B3, Kd 2 nM. Against it:
- B1 — 4.9-fold lower, 0.406 nM
- B2 — within 1.5-fold, 2.64 nM
- B4 — 12-fold lower, 0.172 nM
- B6 — within 1.5-fold, 2.74 nM
- B7 — 11-fold lower, 0.174 nM
- B11 — 2.7-fold higher, 5.45 nM

Point of comparison: B4, t½ 38 min. Against it:
- B1 — 2.5-fold higher, 94 min
- B2 — 3.8-fold lower, 10 min
- B3 — 2.9-fold lower, 13 min
- B6 — 3.5-fold lower, 11 min
- B7 — 14-fold higher, 515 min
- B11 — 3.5-fold lower, 11 min

Point of comparison: B2, koff 0.00111 s⁻¹. Against it:
- B4 — 3.6-fold lower, 0.000305 s⁻¹
- B6 — within 1.5-fold, 0.00103 s⁻¹
- B7 — 50-fold lower, 2.24e-05 s⁻¹
- B11 — within 1.5-fold, 0.00107 s⁻¹

Point of comparison: B7, kon 129000 M⁻¹ s⁻¹. Against it:
- B2 — 3.3-fold higher, 420000 M⁻¹ s⁻¹
- B4 — 14-fold higher, 1.78e+06 M⁻¹ s⁻¹
- B6 — 2.9-fold higher, 375000 M⁻¹ s⁻¹
- B11 — 1.5-fold higher, 197000 M⁻¹ s⁻¹

Target: T3, monkey MSR1 extracellular domain …
Experiment: SPR Biacore, 25 C, antibody captured;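 further: rates from 1:1 fit with mass transport limitation of real-time sensorgrams, HEPES-buffered saline with EDTA and Tween-20 at pH 7.4, KD and t½ derived from the kinetic rates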
Protocol: as §1, §2

Point of comparison: B11, Kd 7.9 nM. Against it:
- B1 — within 1.5-fold, 6.81 nM
- B2 — within 1.5-fold, 6.88 nM
- B3 — 4.1-fold lower, 1.93 nM
- B4 — 7.8-fold lower, 1.01 nM
- B6 — 19-fold lower, 0.41 nM
- B7 — 17-fold lower, 0.477 nM
- B8 — 2.1-fold lower, 3.78 nM

Point of comparison: B7, t½ 247 min. Against it:
- B1 — 49-fold lower, 5 min
- B2 — 62-fold lower, 4 min
- B3 — 15-fold lower, 16 min
- B4 — 16-fold lower, 15 min
- B6 — 3.1-fold lower, 80 min
- B8 — 19-fold lower, 13 min
- B11 — 49-fold lower, 5 min

Point of comparison: B8, koff 0.000874 s⁻¹. Against it:
- B2 — 3.3-fold higher, 0.00291 s⁻¹
- B4 — within 1.5-fold, 0.000749 s⁻¹
- B6 — 6.1-fold lower, 0.000144 s⁻¹
- B7 — 19-fold lower, 4.69e-05 s⁻¹
- B11 — 2.4-fold higher, 0.00212 s⁻¹

Point of comparison: B11, kon 269000 M⁻¹ s⁻¹. Against it:
- B2 — 1.6-fold higher, 423000 M⁻¹ s⁻¹
- B4 — 2.8-fold higher, 744000 M⁻¹ s⁻¹
- B6 — within 1.5-fold, 352000 M⁻¹ s⁻¹
- B7 — 2.7-fold lower, 98200 M⁻¹ s⁻¹
- B8 — within 1.5-fold, 231000 M⁻¹ s⁻¹

Reference: patent US20190367631A1 (Regeneron, published 2019)
